From PMC6515407, “Laccases with Variable Properties from Different Strains of Steccherinum ochraceum: Does Glycosylation Matter?” (International Journal of Molecular Sciences, 2019)

Tests used:
Conditions in all cases: 0.1 M McIlvaine buffer pH 4.5, 25 °C, native glycosylated enzyme
[1] = substrate: CCn1c(=NN=c2sc3cc(S(=O)(=O)O)ccc3n2CC)sc2cc(S(=O)(=O)O)ccc21; assay: spectrophotometric oxidation kinetics; format: biochemical, Steccherinum ochraceum
Text: (§1) spectrophotometric oxidation kinetics on So3827

[2] = substrate: COc1cc(C=NN=Cc2cc(OC)c(O)c(OC)c2)cc(OC)c1O; assay: spectrophotometric oxidation kinetics; format: biochemical, Steccherinum ochraceum
Text: as §1

[3] = substrate: CCn1c(=NN=c2sc3cc(S(=O)(=O)O)ccc3n2CC)sc2cc(S(=O)(=O)O)ccc21; assay: spectrophotometric oxidation kinetics; format: biochemical, Steccherinum ochraceum; remark: listed apart in the source
Text: (§2) spectrophotometric oxidation kinetics on So3398

[4] = substrate: COc1cccc(OC)c1O; assay: spectrophotometric oxidation kinetics; format: biochemical, Steccherinum ochraceum
Text: as §2

[5] = substrate: COc1cc(C=NN=Cc2cc(OC)c(O)c(OC)c2)cc(OC)c1O; assay: spectrophotometric oxidation kinetics; format: biochemical, Steccherinum ochraceum; remark: listed apart in the source
Text: as §2

[6] = substrate: Oc1ccccc1O; assay: spectrophotometric oxidation kinetics; format: biochemical, Steccherinum ochraceum
Text: (§3) spectrophotometric oxidation kinetics on So3174

[7] = substrate: CCn1c(=NN=c2sc3cc(S(=O)(=O)O)ccc3n2CC)sc2cc(S(=O)(=O)O)ccc21; assay: spectrophotometric oxidation kinetics; format: biochemical, Steccherinum ochraceum; remark: listed apart in the source
Text: as §3

[8] = substrate: COc1cccc(OC)c1O; assay: spectrophotometric oxidation kinetics; format: biochemical, Steccherinum ochraceum; remark: listed apart in the source
Text: as §3

[9] = substrate: COc1cc(C=NN=Cc2cc(OC)c(O)c(OC)c2)cc(OC)c1O; assay: spectrophotometric oxidation kinetics; format: biochemical, Steccherinum ochraceum; remark: listed apart in the source
Text: as §3

purified protein = substrate: COc1ccccc1O; assay: purified protein
[10] = substrate: CCn1c(=NN=c2sc3cc(S(=O)(=O)O)ccc3n2CC)sc2cc(S(=O)(=O)O)ccc21; assay: spectrophotometric oxidation kinetics; format: biochemical, Steccherinum ochraceum; remark: listed apart in the source
Text: (§4) spectrophotometric oxidation kinetics on So3120

[11] = substrate: COc1cccc(OC)c1O; assay: spectrophotometric oxidation kinetics; format: biochemical, Steccherinum ochraceum; remark: listed apart in the source
Text: as §4

[12] = substrate: COc1cc(C=NN=Cc2cc(OC)c(O)c(OC)c2)cc(OC)c1O; assay: spectrophotometric oxidation kinetics; format: biochemical, Steccherinum ochraceum; remark: listed apart in the source
Text: as §4

[13] = substrate: CCn1c(=NN=c2sc3cc(S(=O)(=O)O)ccc3n2CC)sc2cc(S(=O)(=O)O)ccc21; assay: spectrophotometric oxidation kinetics; format: biochemical, Steccherinum ochraceum; remark: listed apart in the source
Text: (§5) spectrophotometric oxidation kinetics on So3617

[14] = substrate: COc1cc(C=NN=Cc2cc(OC)c(O)c(OC)c2)cc(OC)c1O; assay: spectrophotometric oxidation kinetics; format: biochemical, Steccherinum ochraceum; remark: listed apart in the source
Text: as §5

[15] = substrate: CCn1c(=NN=c2sc3cc(S(=O)(=O)O)ccc3n2CC)sc2cc(S(=O)(=O)O)ccc21; assay: spectrophotometric oxidation kinetics; format: biochemical, Steccherinum ochraceum; remark: listed apart in the source
Text: (§6) spectrophotometric oxidation kinetics on So2134

[16] = substrate: COc1cccc(OC)c1O; assay: spectrophotometric oxidation kinetics; format: biochemical, Steccherinum ochraceum; remark: listed apart in the source
Text: as §6

[17] = substrate: COc1cc(C=NN=Cc2cc(OC)c(O)c(OC)c2)cc(OC)c1O; assay: spectrophotometric oxidation kinetics; format: biochemical, Steccherinum ochraceum; remark: listed apart in the source
Text: as §6

[18] = substrate: CCn1c(=NN=c2sc3cc(S(=O)(=O)O)ccc3n2CC)sc2cc(S(=O)(=O)O)ccc21; assay: spectrophotometric oxidation kinetics; format: biochemical, Steccherinum ochraceum; remark: listed apart in the source
Text: (§7) spectrophotometric oxidation kinetics on So3622

[19] = substrate: COc1cc(C=NN=Cc2cc(OC)c(O)c(OC)c2)cc(OC)c1O; assay: spectrophotometric oxidation kinetics; format: biochemical, Steccherinum ochraceum; remark: listed apart in the source
Text: as §7

B1: So3827 (Steccherinum ochraceum) (protein)
chain: VQIGPVTDLHITNANIAPDGFTRPAVLAGGTFPGPTISGNTGDNFQITVFNELTETSMLTDTSIHWHGLFQKGTNWADGPAFVTQCPIITGNSFDYNFNVPGQAGTYWYHSHLSTQYCDGLRGPFVVYDPNDPNASLYDVDDDTTIITLADWYHTLAQQEPIGAAITADATLINGLGRSFTNTTASPLSVITVQSGKRYRMRLVSISCDPNYQFSIDGHDMTIIEVDGVNSQQLTVDQIQIFAAQRYSFVLNANQPVGNYWIRAQPNSGGQGFDGGINSAILRYEGATVADPTTSPPTTFTSPLVETNLHPLADLGVPGQPFRGGADDPMVLNLGFANGRFTIDGVSFVPPTVPVLLQILSGAQNAQDLLPAGSVISLPPNSVIEVALPAGAAGGPHPFHLHGHNFAVVQSANNATPNYVNPIWRDTVSIGGTGDNVTIRFTTNNPGPWFLHCHIDWHLEAGFAIVFAEDIPDTASANPVPQAWSDLCPAYDQAHNISTAT
**Q.** Which results are given for B1?
**A.** Km [1]: 200 ± 7 µM; kcat [1]: 276 ± 31 s⁻¹; kcat/Km [1]: 1.38e+06 ± 162000 M⁻¹ s⁻¹; Km [2]: 6.7 ± 0.9 µM; kcat [2]: 113 ± 12 s⁻¹; kcat/Km [2]: 1.69e+07 ± 2.87e+06 M⁻¹ s⁻¹

B2: So3398 (Steccherinum ochraceum) (protein)
chain: B1 chain
**Q.** Which results are given for B2?
**A.** Km [3]: 209 ± 27 µM; kcat [3]: 281 ± 26 s⁻¹; kcat/Km [3]: 1.34e+06 ± 214000 M⁻¹ s⁻¹; Km [4]: 17 ± 3 µM; kcat [4]: 152 ± 12 s⁻¹; kcat/Km [4]: 8.94e+06 ± 1.52e+06 M⁻¹ s⁻¹; Km [5]: 5.6 ± 0.8 µM; kcat [5]: 119 ± 11 s⁻¹; kcat/Km [5]: 2.12e+07 ± 3.56e+06 M⁻¹ s⁻¹

B3: So3174 (Steccherinum ochraceum) (protein)
chain: B1 chain
**Q.** Which Km [6] does the source give for B3 here?
**A.** Its Km is 576 ± 86 µM.

**Q.** And the kcat [6]?
**A.** Its kcat is 373 ± 27 s⁻¹.

**Q.** What about the kcat/Km [6] of the same protein?
**A.** The kcat/Km was 648000 ± 108000 M⁻¹ s⁻¹.

**Q.** And the Km [7]?
**A.** The Km was 81 ± 9 µM.

**Q.** What about the kcat [7] of the same protein?
**A.** Its kcat is 240 ± 21 s⁻¹.

**Q.** What about the kcat/Km [7] of the same protein?
**A.** The kcat/Km was 2.96e+06 ± 416000 M⁻¹ s⁻¹.

**Q.** And the Km [8]?
**A.** Its Km is 20 ± 2 µM.

**Q.** And the kcat [8]?
**A.** The kcat was 101 ± 9 s⁻¹.

**Q.** What about the kcat/Km [8] of the same protein?
**A.** Its kcat/Km is 5.05e+06 ± 755000 M⁻¹ s⁻¹.

**Q.** What about the Km [9] of the same protein?
**A.** The Km was 3.8 ± 0.6 µM.

**Q.** And the kcat [9]?
**A.** Its kcat is 104 ± 11 s⁻¹.

**Q.** What about the kcat/Km [9] of the same protein?
**A.** The kcat/Km was 2.74e+07 ± 5.09e+06 M⁻¹ s⁻¹.

**Q.** And the Km (purified protein)?
**A.** Its Km is 2230 ± 205 µM.

**Q.** And the kcat (purified protein)?
**A.** Its kcat is 152 s⁻¹.

**Q.** What about the kcat/Km (purified protein) of the same protein?
**A.** The kcat/Km was 68000 M⁻¹ s⁻¹.

B4: So3120 (Steccherinum ochraceum) (protein)
chain: B1 chain
**Q.** Which Km [10] does the source give for B4 here?
**A.** Its Km is 175 ± 23 µM.

**Q.** What about the kcat [10] of the same protein?
**A.** The kcat was 325 ± 28 s⁻¹.

**Q.** What about the kcat/Km [10] of the same protein?
**A.** Its kcat/Km is 1.86e+06 ± 290000 M⁻¹ s⁻¹.

**Q.** What about the Km [11] of the same protein?
**A.** Its Km is 17 ± 3 µM.

**Q.** What about the kcat [11] of the same protein?
**A.** The kcat was 110 ± 14 s⁻¹.

**Q.** What about the kcat/Km [11] of the same protein?
**A.** Its kcat/Km is 6.47e+06 ± 1.27e+06 M⁻¹ s⁻¹.

**Q.** And the Km [12]?
**A.** Its Km is 5.4 ± 0.8 µM.

**Q.** And the kcat [12]?
**A.** The kcat was 105 ± 12 s⁻¹.

**Q.** And the kcat/Km [12]?
**A.** The kcat/Km was 1.94e+07 ± 3.62e+06 M⁻¹ s⁻¹.

B5: So3617 (Steccherinum ochraceum) (protein)
chain: B1 chain
**Q.** Which results are given for B5?
**A.** Km [13]: 212 ± 10 µM; kcat [13]: 228 ± 21 s⁻¹; kcat/Km [13]: 1.08e+06 ± 111000 M⁻¹ s⁻¹; Km [14]: 5.2 ± 0.6 µM; kcat [14]: 89 ± 10 s⁻¹; kcat/Km [14]: 1.71e+07 ± 2.69e+06 M⁻¹ s⁻¹

B6: So2134 (Steccherinum ochraceum) (protein)
chain: B1 chain
**Q.** For B6, which Km [15] is on record?
**A.** Its Km is 100 ± 6 µM.

**Q.** What about the kcat [15] of the same protein?
**A.** The kcat was 254 ± 23 s⁻¹.

**Q.** What about the kcat/Km [15] of the same protein?
**A.** Its kcat/Km is 2.54e+06 ± 276000 M⁻¹ s⁻¹.

**Q.** And the Km [16]?
**A.** The Km was 21 ± 2 µM.

**Q.** What about the kcat [16] of the same protein?
**A.** Its kcat is 166 ± 14 s⁻¹.

**Q.** What about the kcat/Km [16] of the same protein?
**A.** Its kcat/Km is 7.9e+06 ± 1.03e+06 M⁻¹ s⁻¹.

**Q.** What about the Km [17] of the same protein?
**A.** The Km was 3.7 ± 0.5 µM.

**Q.** And the kcat [17]?
**A.** Its kcat is 91 ± 7 s⁻¹.

**Q.** What about the kcat/Km [17] of the same protein?
**A.** Its kcat/Km is 2.46e+07 ± 3.93e+06 M⁻¹ s⁻¹.

B7: So3622 (Steccherinum ochraceum) (protein)
chain: B1 chain
**Q.** What does the source list for B7?
**A.** Km [18]: 174 ± 11 µM; kcat [18]: 252 ± 20 s⁻¹; kcat/Km [18]: 1.45e+06 ± 147000 M⁻¹ s⁻¹; Km [19]: 5.5 ± 0.7 µM; kcat [19]: 83 ± 7 s⁻¹; kcat/Km [19]: 1.51e+07 ± 2.21e+06 M⁻¹ s⁻¹
